Experiment: yeast display, Sf9 membrane polyspecificity reagent, FACS + sequencing; frameworks hold sequencing errors
In short: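 Genes from sorted yeast were amplified by colony PCR, read by MiSeq 2 × 250 sequencing and filtered on CDR length. These cells carried a synthetic nanobody library in Saccharomyces cerevisiae BJ5465 and were sorted by FACS into low and high (top ~1%) gates on anti-HA and streptavidin fluorescence. Polyreactivity is labelled according to the gate of origin.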
In the case of “QVQLVESGGCLVQAGGSLRLSCAASGRIFRTYTMGWYRQAPGKERELVAAITWNGGSTYYADSVKGRFTISRDNAKNTVYLQMNSLKPEDTAVYYCIADRHYSAYPLYDYWGQGTQVTVSS”, the “polyreactivity (PSR sort gate)” value is reported as “low polyreactivity”. With “QVQLVESGGCLVQAGGSLRLSCAASGRIFSSYAMGWYRQAPGKERELVAAIRSSGDRTYYADSVKGRFTISRDNAKNTVYFQMNSLKPEDTAVYYCAADLRRFQSYYYWGQGTQVTVSS” the “polyreactivity (PSR sort gate)” value was “high polyreactivity”. In the case of “QVQLVESGGCLVQAGGSLRLSCAASGRISPDYAMGWYRQAPGTERELVATISSGAGTTYYADSVKGRFTISRDNAKNTVYLQMNSLKPEDTAVYYCAAEDPSEFDYWGQGTQVTVSS”, the “polyreactivity (PSR sort gate)” value is reported as “low polyreactivity”. In the case of “QVQLVESGGCLVQAGGSLRLSCAASGRTFKQYAIGWSRQAPGKERELVAAITSGGSTYYADSVKGRFTISRDNAKNTVSLHMNSLKPEDNAVYYCNKESYFDTYRRYDSWGQCTQVTVSS”, the “polyreactivity (PSR sort gate)” value is reported as “low polyreactivity”. For “QVQLVESGGCLVQAGGSLRLSCAASGRTFPYNVMGWYRQAPGKERELDAGITGSGDSTFYADSVKGRFTISRDNAKNTFYLQMNSLNPDDTSVYYCAARYRTLNDGYIRNYWGQGTQVTVSS”, the “polyreactivity (PSR sort gate)” value was “low polyreactivity”. With “QVQLVESGGCLVQAGGSLRLSCAASGRTFRWYAMGWYRQAPGKESELVAAINPGGSTNYADSVKGRFSISRDNAKNTVYLQMNSLKPEDTAVYYCNAAGYDALTHNYYWGQGTQVTVSS” the “polyreactivity (PSR sort gate)” value was “low polyreactivity”. For “QVQLVESGGCLVQAGGSLRLSCAASGRTFYIYAMGWYRQAPGKERELVAAINFSDGSTSYADSVKGRFTISRDNAKHTVYLQMNSLKPEDTAVYYWGQGTKVTVSS”, the “polyreactivity (PSR sort gate)” value was “low polyreactivity”. For “QVQLVESGGCLVQAGGSLRLSCAASGRTFYPYAMGWYRQAPGQDRELVAAIRSSGGTTYYADSVKGRFTISRDNAKNTVYLQMNSLKREDTAVYYCAAFVDRQGGYYWGQGTQVTVSS”, the “polyreactivity (PSR sort gate)” value was “high polyreactivity”. For “QVQLVESGGCLVQAGGSLRLSCAASGRTLGYYTMGWYRQAPGKERELVATITPGGSTSYADSVKGRFTISRDNAKNTVYLQMNSLKPEDTAVYYCARTRPYYLLYSSNFRYDYWGQGTQVTVSS”, the “polyreactivity (PSR sort gate)” value was “high polyreactivity”. For “QVQLVESGGCLVQAGGSLRLSCAASGSIFDVNAMGLYRQAPGKERELVAAISDSGGSTYYADSVKGRFTISRDNAKNTVYLQMNSLKPEDTAVYYCNADWSLYNYYDFDYWGQGTQVTVSS”, the “polyreactivity (PSR sort gate)” value was “low polyreactivity”. In the case of “QVQLVESGGCLVQAGGSLRLSCAASGSIFVAYAMGWYRQAPGKERELVAAITGRSGRTYYADSVKGRFTISRDNAKNTVYLQMNSLKPEDTAVYYCAARGYGTDDYDYCGQGTQVTVSS”, the “polyreactivity (PSR sort gate)” value is reported as “high polyreactivity”. With “QVQLVESGGCLVQAGGSLRLSCAASGSTFDYYAMGWYTQAPGKERELVAAISSSGSSTYYADSVKGRFTISRDNAKNTVYLQMNSLKPEDTAVYYCAKGTNYRDDYWGQGTQVTVSS” the “polyreactivity (PSR sort gate)” value was “low polyreactivity”. With “QVQLVESGGCLVQAGGSLRLSCAASGSTFGYNAMGWYRQATGKERELVAAITWTGASTYYADSVKGRFTISRDNAKNTVYLKINSLKPEDTEVYYCNRVGYQSMNYWGQGTQVTVSS” the “polyreactivity (PSR sort gate)” value was “low polyreactivity”. With “QVQLVESGGCLVQAGGSLRLSCAASGSTFKTYTMGWYRQAPGKERELVAAITWSGGRTYYADSGKGRFTISRDNAKNTVYLQMNSLKPEDTAVYYCAADWGEEYTRDDYCGQGTQVTVSS” the “polyreactivity (PSR sort gate)” value was “low polyreactivity”. In the case of “QVQLVESGGCLVQAGGSLRLSCAASGSTFRYNAMGWYRPAPGKERELVAAITSSGGRTYYADSVKGRFTISRDNAKNTVYLQMNSLKPEDTAVYYCARRYLSVRGDSWGQGTQVTVSS”, the “polyreactivity (PSR sort gate)” value is reported as “high polyreactivity”. With “QVQLVESGGCLVQAGGSLRLSCAASGSTFWGYTMGWYRQAPGKVRELVAAISSDGSTNYADSVKGRFTISRDNAKNTVYLQMNSLKPEDTAVYDCNTVYDPDTGQSDSWGQGTQVTVSS” the “polyreactivity (PSR sort gate)” value was “low polyreactivity”. With “QVQLVESGGCLVQAGGSLRLSCAASGSTFYVYTMGWYTQAPGKESELVAAISWTDGDTYYADSVKGRFTISRDTAKKTVYLEMNSLKPEDTAVYYCAADIAWLWWYGPGYDYWGQGTQVTVSS” the “polyreactivity (PSR sort gate)” value was “low polyreactivity”.

— the nanobody polyreactivity screen of Harvey et al. (2022)
